In US20150037339A1 (Regeneron, published 2015):

T1: Activin A (human, UniProt P08476 311-426)
T1 construct: Homodimer of two βA subunits; bought from R&D Systems (#338-AC); also called inhibin-βA dimer; human Activin A
T1 sequence: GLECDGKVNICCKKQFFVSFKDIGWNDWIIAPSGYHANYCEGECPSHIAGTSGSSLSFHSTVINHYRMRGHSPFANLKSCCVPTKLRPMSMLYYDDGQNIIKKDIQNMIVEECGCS

T2: Activin B (human, UniProt P09529 293-407)
T2 construct: Homodimer of two βB subunits; R&D Systems #659-AB
T2 chain: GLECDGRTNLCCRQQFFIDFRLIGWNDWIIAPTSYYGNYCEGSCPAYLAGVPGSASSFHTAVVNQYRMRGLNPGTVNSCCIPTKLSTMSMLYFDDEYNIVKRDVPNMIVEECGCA

B1: H4H10432P2 (antibody, human IgG4, V domains shown)
VH: EVQLVESGGGLVQPGRSLTLSCAVSGFTFDDHAMHWVRQAPGKGLEWVSGISWNSVSIGYADSVKGRFTISRDNAKTSLYLQMNSLRVDDTALYYCVQDLNDILTGYPLFDFWGQGTLVTVSS
VL: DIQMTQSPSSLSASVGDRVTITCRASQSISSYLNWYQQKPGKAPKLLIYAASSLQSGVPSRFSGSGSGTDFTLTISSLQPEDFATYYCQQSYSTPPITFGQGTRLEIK
B2: H4H10430P (antibody, human IgG4, V domains shown)
VH: EVQLVESGGGLVQPGRSLRLSCKASGFAFDDFAMHWVRQAPGKGLEWVSGIVWNSGDIGYADSVKGRFTISRDNAKNSLYLQLNSLRTEDTALYFCVKDMVRGLMGFNYYGMDVWGQGTTVTVSS
VL: EIVLTQSPATLSLSPGERATLSCRASQTISTYLVWYRQRPGQAPSLLIYDASNRATDIPARFSGSGSGTDFTLTISSLEPEDFAVYYCQQRSNWPITFGQGTRLEIK
notes: also called H4H1430P; H4H10430P2
B3: H4H10440P2 (antibody, human IgG4, V domains shown)
VH: EVQLVESGGGVVQPGGSLRLSCAASTFTFDDFAMHWVRQAPGKGLEWVSLITGDGGSTYYADPVKGRFTISRDNSKNSLYLQMNSLRTEDTALYYCVKDWWIAARPDYYYYGMDVWGQGTTVTVSS
VL: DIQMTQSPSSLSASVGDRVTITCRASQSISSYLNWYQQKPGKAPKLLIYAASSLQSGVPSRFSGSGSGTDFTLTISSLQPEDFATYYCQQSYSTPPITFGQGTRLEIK
B4: H4H10429P (antibody, human IgG4, V domains shown)
VH: QVQLVESGGGVVQPGRSLRLSCVASGFTVSSYGIHWVRQAPGKGLEWVSVIWYDGRNKDYADSVKGRFTISRDNSKNTVYLEMKGLRAEDTALYYCARDKTGDFDSWGQGTLVTVSS
VL: DIQMTQSPSSLSASVGDRVTITCRASQNINSFLSWYQQKPGKAPKFLIYDASSIQSGAPSRFSGSGSGTDFTLTISSLQPEDFATYYCQQSYSSPFTFGQGTKLEIK

Target: T1, Activin A
Assay: SPR, captured mAb, 25C
Outline: (§1)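 240 s association, 600 s buffer dissociation; ka, kd fitted; KD (M) = kd/ka; t1/2 (min) = ln2/(60*kd).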

Activin A-20 nM (RU)	Kd	kon	t1/2	koff	Binder
20.7 RU	≤ 0.00318 nM	1.57e+07 M⁻¹ s⁻¹	≥ 3.85 h		B1
19.4 RU	0.00352 nM	4.75e+07 M⁻¹ s⁻¹	1.15 h	0.000167 s⁻¹	B2
12.9 RU	0.0247 nM	3.76e+06 M⁻¹ s⁻¹	2.08 h	9.28e-05 s⁻¹	B3
24.9 RU	0.00817 nM	7.82e+06 M⁻¹ s⁻¹	3.01 h	6.39e-05 s⁻¹	B4

Target: T2, Activin B
Assay: SPR, captured mAb, 25C
Outline: as §1

50 nM Ag Bound (RU)	binding result	Kd	koff	kon	t1/2	Binder
5.1 RU	no binding (tested: 50 nM)					B1
3.9 RU						B2
18.8 RU		1.09 nM	0.00116 s⁻¹	1.06e+06 M⁻¹ s⁻¹	0.167 h	B3
26.4 RU		3.75 nM	0.0131 s⁻¹	3.49e+06 M⁻¹ s⁻¹	0.015 h	B4

Target: T1, Activin A
Assay: SPR, captured mAb, 37C
Outline: as §1

Activin A-20 nM (RU)	Kd	kon	t1/2	koff	Binder
25.1 RU	≤ 0.00218 nM	2.3e+07 M⁻¹ s⁻¹	≥ 3.85 h		B1
25 RU	0.00397 nM	3.8e+07 M⁻¹ s⁻¹	1.27 h	0.000151 s⁻¹	B2
15.3 RU	0.0515 nM	6.37e+06 M⁻¹ s⁻¹	0.587 h	0.000328 s⁻¹	B3
31.4 RU	≤ 0.00375 nM	1.33e+07 M⁻¹ s⁻¹	≥ 3.85 h		B4

Target: T2, Activin B
Assay: SPR, captured mAb, 37C
Outline: as §1

50 nM Ag Bound (RU)	binding result	Kd	koff	kon	t1/2	Binder
5.1 RU						B1
3.6 RU	no binding (tested: 50 nM)					B2
20.9 RU		3.29 nM	0.00419 s⁻¹	1.28e+06 M⁻¹ s⁻¹	2.8 min	B3
25.3 RU		9.98 nM	0.0343 s⁻¹	3.43e+06 M⁻¹ s⁻¹	0.3 min	B4

Target: T1, Activin A
Assay: SPR, captured mAb, 25C; no dissociation observed, kd fixed
Experimental: (§2) Antibody-antigen association was monitored for 240 seconds while dissociation in buffer was monitored for 600 seconds. Kinetic association and dissociation rate constants were determined by processing and fitting the data using Scrubber software version 2.0c. Binding equilibrium dissociation constants (KD) and dissociative half-lives (t_{1/2}) were then calculated from the kinetic rate constants as: KD (M)=kd/kₐ and t_{1/2} (min)=[ln 2/(60*kd)]. (NB=no binding observed under the conditions used; NT=not tested).

koff	Binder
≤ 5e-05 s⁻¹	B1

Target: T1, Activin A
Assay: SPR, captured mAb, 37C; no dissociation observed, kd fixed
Experimental: as §2

koff	Binder
≤ 5e-05 s⁻¹	B1
≤ 5e-05 s⁻¹	B4

Target: T1, Activin A
Assay: Octet cross-competition; binder on anti-hFc tip; 50 nM hActivin A pre-bound with 1 uM H4H10423P (col 4); black box
Experimental: (§3) No. 8,309,082) and Control 3 (MAB3381, available from R&D Systems, Inc., Minneapolis, Minn.) were also included in the assays. All assays were performed at 25° C. with a microtiter plate shaking rate of 1000 rpm in Octet HBST buffer (0.01 M HEPES pH7.4, 0.15M NaCl, 3 mM EDTA, 0.05% v/v Surfactant P20, 0.1 mg/mL BSA) according to manufacturer's instructions (ForteBio Corp., Menlo Park, Calif.). […] Any remaining anti-hFc binding sites on the tips were blocked by incubating the tips in a 50 ug/mL solution of irrelevant antibody for 5 minutes.

binding response	Binder
0.33	B2

Target: T1, Activin A
Assay: Octet cross-competition; binder on anti-hFc tip; 50 nM hActivin A pre-bound with 1 uM H4H10423P (col 4); white box
Experimental: as §3

binding response	Binder
1.32	B1
1.22	B3
1.39	B4

Target: T1, Activin A
Assay: Octet cross-competition; binder on anti-hFc tip; 50 nM hActivin A pre-bound with 1 uM H4H10429P (col 6); black box
Experimental: as §3

binding response	Binder
0.32	B1
0.62	B2
0.41	B3

Target: T1, Activin A
Assay: Octet cross-competition; binder on anti-hFc tip; 50 nM hActivin A pre-bound with 1 uM H4H10430P (col 5); black box
Experimental: as §3

binding response	Binder
0.28	B1
0.29	B3
0.65	B4

Target: T1, Activin A
Assay: Octet cross-competition; binder on anti-hFc tip; 50 nM hActivin A pre-bound with 1 uM Control 1 (col 10); black box
Experimental: as §3

binding response	Binder
0.15	B1
0.2	B2
0.13	B3
0.16	B4

Target: T1, Activin A
Assay: Octet cross-competition; binder on anti-hFc tip; 50 nM hActivin A pre-bound with 1 uM Control 3 (col 11); black box
Experimental: as §3

binding response	Binder
-0.05	B1
-0.03	B2
-0.05	B3
-0.01	B4

Target: T1, Activin A
Assay: Octet cross-competition; binder on anti-hFc tip; 50 nM hActivin A pre-bound with 1 uM H4H10432P2 (col 7); black box
Experimental: as §3

binding response	Binder
0.26	B2
0.27	B3
0.26	B4

Target: T1, Activin A
Assay: Octet cross-competition; binder on anti-hFc tip; 50 nM hActivin A pre-bound with 1 uM H4H10436P2 (col 8); black box
Experimental: as §3

binding response	Binder
0.29	B1
0.31	B2
0.32	B3
0.34	B4

Target: T1, Activin A
Assay: Octet cross-competition; binder on anti-hFc tip; 50 nM hActivin A pre-bound with 1 uM H4H10440P2 (col 9); black box
Experimental: as §3

binding response	Binder
0.27	B1
0.31	B2
0.29	B4

Target: T1, Activin A
Assay: Octet cross-competition; binder on anti-hFc tip; 50 nM hActivin A pre-bound with 1 uM H4H10442P2 (col 3); white box
Experimental: as §3

binding response	Binder
1.63	B1
1.76	B2
1.4	B3
1.4	B4

Target: T1, Activin A
Assay: Octet cross-competition; binder on anti-hFc tip; 50 nM hActivin A pre-bound with 1 uM H4H10446P2 (col 1); white box
Experimental: as §3

binding response	Binder
1.36	B1
1.55	B2
1.17	B3
1.24	B4

Target: T1, Activin A
Assay: Octet cross-competition; binder on anti-hFc tip; 50 nM hActivin A pre-bound with 1 uM H4H10468P2 (col 2); white box
Experimental: as §3

binding response	Binder
1.58	B1
1.84	B2
1.37	B3
1.37	B4

Target: T1, Activin A
Assay: Octet cross-competition; binder on anti-hFc tip; 50 nM hActivin A mixed with 1 uM Isotype control 12 (-) (col 12); dark grey box
Experimental: as §3

binding response	Binder
0.3	B1
0.49	B2
0.28	B3
0.39	B4

Target: T1, Activin A
Assay: Octet cross-competition; binder on anti-hFc tip; 50 nM hActivin A mixed with 1 uM Isotype control 13 (-) (col 13); dark grey box
Experimental: as §3

binding response	Binder
0.11	B1
0.27	B2
0.11	B3
0.24	B4
